Patent US20070207967

Target: T1, PPC peptide, soluble recombinant 18-mer ADGACGYGRFSPPCGAAG
T1 chain: ADGACGYGRFSPPCGAAG

B1: aminophenylmercuric acetate (APMA)-activated MMP-2 (protein)
chain: YNFFPRKPKWDKNQITYRIIGYTPDLDPETVDDAFARAFQVWSDVTPLRFSRIHDGEADIMINFGRWEHGDGYPFDGKDGLLAHAFAPGTGVGGDSHFDDDELWTLGEGQVVRVKYGNADGEYCKFPFLFNGKEYNSCTDTGRSDGFLWCSTTYNFEKDGKYGFCPHEALFTMGGNAEGQPCKFPFRFQGTSYDSCTTEGRTDGYRWCGTTEDYDRDKKYGFCPETAMSTVGGNSEGAPCVFPFTFLGNKYESCTSAGRSDGKMWCATTANYDDDRKWGFCPDQGYSLFLVAAHEFGHAMGLEHSQDPGALMAPIYTYTKNFRLSQDDIKGIQELYGASPDIDLGTGPTPTLGPVTPEICKQDIVFDGIAQIRGEIFFFKDRFIWRTVTPRDKPMGPLLVATFWPELPEKIDAVYEAPQEEKAVFFAGNEYWIYSASTLERGYPKPLTSLGLPPDVQRVDAAFNWSKNKKTYIFAGDKFWRYNEVKKKMDPGFPKLIADAWNAIPDNLDAVVDLQGGGHSYFFKGAYYLKLENQSLKSVKFGSIKSDWLGC
gelatin degradation assay (enzymatic activity, biotinylated gelatin substrate): PPC inhibited both MMP-9 and MMP-2 activity
